Data on 2 molecules can be found in article PMC12072577, “Structure and Inhibition of the Human Na^+/H^+ Exchanger SLC9B2” (International Journal of Molecular Sciences, 2025).

The target of series [1] is T1, bison NHA2ΔN reconstituted into biotinylated proteoliposomes (bison, UniProt A0A6P3HVI0).
T1 construct: Sodium/proton exchanger NHA2 (SLC9B2) of bison, N-terminally truncated (ΔN); The biotin is on a lipid of the liposome, not on the protein; also called bison NHA2∆N; source: reconstituted with egg PC and a biotinylated lipid
In words: ELISA; liposome ELISA: biotinylated proteoliposomes with bison NHA2ΔN immobilised on streptavidin-coated microplates; hybridoma clones.

Series [2] deals with the molecule itself. Nature of the series: cryo-EM structure; human NHA2∆N-Fab complex in MSP1E2 nanodiscs with yeast PI lipids; apo and with 1 mM phloretin.

T1 sequence (A0A6P3HVI0 whole entry, stated change not applied, the tested form may be a part): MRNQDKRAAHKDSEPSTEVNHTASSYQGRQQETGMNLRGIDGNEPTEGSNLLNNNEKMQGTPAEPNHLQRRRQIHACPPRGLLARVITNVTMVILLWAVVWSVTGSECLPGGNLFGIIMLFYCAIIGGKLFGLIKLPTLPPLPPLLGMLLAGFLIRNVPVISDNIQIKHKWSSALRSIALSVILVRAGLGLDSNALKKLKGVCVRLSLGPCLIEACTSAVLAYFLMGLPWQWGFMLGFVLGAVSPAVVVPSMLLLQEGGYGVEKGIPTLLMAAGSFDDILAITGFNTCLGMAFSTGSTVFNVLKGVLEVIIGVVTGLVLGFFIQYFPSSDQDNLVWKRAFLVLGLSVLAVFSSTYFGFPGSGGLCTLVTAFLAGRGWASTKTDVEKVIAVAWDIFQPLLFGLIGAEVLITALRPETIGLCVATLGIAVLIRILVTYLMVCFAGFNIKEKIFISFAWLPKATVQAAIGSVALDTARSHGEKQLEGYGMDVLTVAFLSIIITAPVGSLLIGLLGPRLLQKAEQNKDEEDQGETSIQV

B1: mouse monoclonal antibody against bison NHA2∆N (parent of the Fab) (antibody, V domains shown)
VH: EVQLQESGPELVKPGASVKMSCKASGYTFTNYFIHWVKQKPGQGLEWIGYINPYNDITKFNEKFKGKATLTSDKSSRTAYMELSSLTSEDSAVYYCARCDGYYRYYAMDYWGQGTSVTVSS
VL: DIVMTQTTSSLSASLGDRVTISCRASQDISNYLNWFQQKPDGTVKLLICYTSRLHSGVPSRFSGSGSGTDYSLTISNLEQEDIATYFCQQDSKHPWTFGGGTKLEIK
notes: Fab part as the heavy chain of m2 (in PDB 9QUB and 9QUW); as the light chain of m2 (in PDB 9QUB and 9QUW); Whole antibody of the selected hybridoma clone; also called antibody clone; source: mouse hybridoma (MRL/lpr mice immunised with bison NHA2 proteoliposomes)
For the molecule B1, the binding result in series [1] is on record as “binds”.

B2: Homo sapiens NHA2∆N (residues 59–537), tags removed with TEV protease, in MSP1E2 nanodiscs (domain or fragment, human, UniProt Q86UD5 59-537, looked up)
chain: LQETPTEANHVQRLRQMLACPPHGLLDRVITNVTIIVLLWAVVWSITGSECLPGGNLFGIIILFYCAIIGGKLLGLIKLPTLPPLPSLLGMLLAGFLIRNIPVINDNVQIKHKWSSSLRSIALSIILVRAGLGLDSKALKKLKGVCVRLSMGPCIVEACTSALLAHYLLGLPWQWGFILGFVLGAVSPAVVVPSMLLLQGGGYGVEKGVPTLLMAAGSFDDILAITGFNTCLGIAFSTGSTVFNVLRGVLEVVIGVATGSVLGFFIQYFPSRDQDKLVCKRTFLVLGLSVLAVFSSVHFGFPGSGGLCTLVMAFLAGMGWTSEKAEVEKIIAVAWDIFQPLLFGLIGAEVSIASLRPETVGLCVATVGIAVLIRILTTFLMVCFAGFNLKEKIFISFAWLPKATVQAAIGSVALDTARSHGEKQLEDYGMDVLTVAFLSILITAPIGSLLIGLLGPRLLQKVEHQNKDEEVQGETSVQV
notes: Sodium/proton exchanger NHA2 (SLC9B2), Homo sapiens, residues 59-537; construct lacks the first 58 amino acids; The methods call the tags N-terminal, but the protein is named NHA2∆N-GFP; TEV protease was added after the nanodisc reconstitution and before the final SEC; also called human NHA2∆N; hsNHA2∆N; not shown: GFP, N-terminal, cleaved; TwinStrep, N-terminal, cleaved; His8, N-terminal, cleaved
In general, stoichiometry N refers to the number of molecules, sites or subunits per partner or assembly. With B2, the “stoichiometry N” value in series [2] was determined as 2.
